Experimental data from US20240254222A1 (Bayer, published 2024).

Biological target: T1, Human Semaphorin3A-Fc (R&D Systems), TPP-13211 (human)
T1 construct: R&D Systems 1250-S3; also called recombinant human Sema3A-Fc chimera
Experiment: competition ELISA on coated TPP-13211, competitor biotinylated TPP-15374
Procedure: For screening in a competition ELISA setup, human Sema3a (TPP-13211) was coated onto 384-well plates (Greiner bio-one, 781077) with a concentration of 0.5 μg/ml in coating buffer (Carbonate-Basis pH 9.6, Candor 121125) over night at 10° C. After washing the plates 3 times with 50 μl PBS 0.05% Tween the plates were blocked with 50 μl Smart Block® (Candor 113500) for 1 h at 20° C. and washed again 3 times as described.
Subsequently, 20 μl of pre-mixed antibody solution was added to the plates and incubate for 18 h at 10° C. […] The total concentration of the added antibody solution was 0.25 μg/ml. During the incubation time the antibodies bound to the plates in a competitive manner as they compete for the same epitope on the human Sema3A protein.
After subsequent washing with 50 μl PBS 0.05% Tween for 3 times, 20 μl of a Streptavidin-HRP solution (R&D Systems, DY998, 1:200 in PBS 0.05% Tween 10% Smart Block) were added and incubated for 1 h and 20° C. followed by subsequent washing 3 times with 50 μl PBS 0.05% Tween and addition of 20 μl Amplex Red solution (Invitrogen A12222, 1:1000 in NaP-buffer 50 mM pH7.6 with 1:10000 of 30% H2O2). After a final incubation for 20 min at 20° C. the signal was determined using an emission wavelength of 595 nm and excitation of 530 nm.

T1 sequence (chain, as listed by the source limits assumed): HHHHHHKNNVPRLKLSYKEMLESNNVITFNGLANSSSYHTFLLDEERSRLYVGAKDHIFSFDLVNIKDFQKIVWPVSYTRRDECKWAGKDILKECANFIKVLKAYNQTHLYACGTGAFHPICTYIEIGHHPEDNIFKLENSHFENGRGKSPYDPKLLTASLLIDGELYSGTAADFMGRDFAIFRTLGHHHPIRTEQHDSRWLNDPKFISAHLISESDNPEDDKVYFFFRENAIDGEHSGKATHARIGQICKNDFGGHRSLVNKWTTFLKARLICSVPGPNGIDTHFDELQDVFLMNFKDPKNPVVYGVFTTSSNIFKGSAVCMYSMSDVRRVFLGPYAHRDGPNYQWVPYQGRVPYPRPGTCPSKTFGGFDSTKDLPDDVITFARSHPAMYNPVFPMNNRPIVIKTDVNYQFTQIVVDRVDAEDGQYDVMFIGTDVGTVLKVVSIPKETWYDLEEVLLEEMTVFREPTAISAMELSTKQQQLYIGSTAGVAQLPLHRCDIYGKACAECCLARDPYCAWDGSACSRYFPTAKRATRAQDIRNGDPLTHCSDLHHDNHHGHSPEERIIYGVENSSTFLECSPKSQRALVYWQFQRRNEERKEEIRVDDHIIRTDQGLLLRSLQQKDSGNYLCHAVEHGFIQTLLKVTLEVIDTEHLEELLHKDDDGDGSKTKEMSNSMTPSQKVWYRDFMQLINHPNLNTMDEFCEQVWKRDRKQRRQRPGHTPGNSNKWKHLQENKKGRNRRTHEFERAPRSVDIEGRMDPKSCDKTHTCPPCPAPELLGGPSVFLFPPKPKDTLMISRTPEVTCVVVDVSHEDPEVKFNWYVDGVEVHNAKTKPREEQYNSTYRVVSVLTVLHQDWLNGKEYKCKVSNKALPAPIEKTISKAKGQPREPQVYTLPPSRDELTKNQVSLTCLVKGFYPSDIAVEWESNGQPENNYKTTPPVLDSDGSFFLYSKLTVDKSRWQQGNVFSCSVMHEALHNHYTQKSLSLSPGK

B1: TPP-15374 (antibody, human IgG1, lambda, V domains shown)
VH: EVQLLESGGGLVQPGGSLRLSCAASGFTFSSYEMNWVRQAPGKGLEWVSGISWNSGSIGYADSVKGRFTISRDNSKNTLYLQMNSLRAEDTAVYYCARSGYSSSWFDPDFDYWGQGTLVTVSS
VL: QSVLTQPPSASGTPGQRVTISCTGSSSNIGAGYDVHWYQQLPGTAPKLLIYGNSNRPSGVPDRFSGSKSGTSASLAISGLRSEDEADYYCSSYAGSNPYVVFGGGTKLTVLG
notes: human IgG1; also called IgG1, hit from panning; parental mAb
  VAL norm to TPP-9809 (1 to 1 ratio): 0.69
  VAL norm to TPP-9809 (1 to 5 ratio): 0.41
